Data taken from patent publication US20080253996A1, “Use of Sdf-1 for the Treatment and/or Prevention of Neurological Diseases” (LABORATORIES SERONO SA, priority 2005, published 2008).

Key:
[1] = tested on: sciatic nerve crush mice; experiment: Neuropathy induced by sciatic nerve crush, electrophysiological recording (CMAP); assay type: in vivo, mouse
Method: […] 8 week-old females C57bl/6 RJ mice (Elevage Janvier, Le Genest-St-Isle, France) were used. They were divided into 6 groups (n=6): • (a) nerve crush/Vehicle (Saline/0.02% BSA); • (b) nerve crush/SDF-1α (3 μg/kg); • (c) nerve crush/SDF-1α (10 μg/kg); • (d) nerve crush/SDF-1α (30 μg/kg); • (e) nerve crush/SDF-1α (100 μg/kg); • (f) nerve crush/IL-6 (30 μg/kg).
The animals were anaesthetized by inhalation of 3% Isoflurane (Baxter). The right sciatic nerve was surgically exposed at mid thigh level and crushed at 5 mm proximal to the trifurcation of the sciatic nerve. The nerve was crushed twice for 30s with a haemostatic forceps (width 1.5 mm; Koenig; Strasbourg; France) with a 90-degree rotation between each crush.
Electromyographical (EMG) testing was performed once before the surgery day and each week during 3 weeks following the operation.
The day of nerve crush surgery was considered as dpl 0 (dpl=day post lesion). No test was performed during the 4 days following the crush.
From the day of nerve injury to the end of the study, SDF-1α, IL-6 or Vehicle were administered daily by subcutaneous injections (s.c.) route, 5 days per week.
Electrophysiological recordings were performed using a Neuromatic 2000M electromyograph (EMG) (Dantec, Les Ulis, France). Mice were anaesthetized by inhalation of 3% Isofluran® (Baxter). The normal body temperature was maintained using a heated operating table (Minerve, Esternay, France).
Compound muscle action potential (CMAP) was measured in the gastrocnemius muscle after a single 0.2 ms stimulation of the sciatic nerve at a supramaximal intensity (12.8 mA). The amplitude (mV) and the latency (ms) of the action potential were measured on the operated leg. The measures was also registered on the contralateral (uncrushed) leg of Vehicle treated animals (Baseline). The amplitude is indicative of the number of active motor units, while the distal latency indirectly reflects motor nerve conduction and neuromuscular transmission velocities, which depends in part on the degree of myelination.
Global analysis of the data was performed using one-way ANOVA. Dunnett's test was used further, and data were compared to the “vehicle” control. The level of significance was set at a: p<0.001; b or **: p<0.01; c or *: p<0.05; d: p<0.1. The results were expressed as mean ±standard error of the mean (s.e.m.).
The sciatic nerve crush model described in Example 4 above was carried out to test SDF-1α variant as defined in SEQ ID NO: 4 and the mice were divided into the following 2 groups (n=6):
The SDF-1α variant used in this example and encoded by SEQ ID NO: 4 was expressed with an additional N terminal Methionine. The CMAP duration (time needed for a depolarization and a repolarization session) was also recorded.
The sciatic nerve crush model described in Example 4 above was carried out to test Met-SDF-1α (as defined in SEQ ID NO: 7) and the mice were divided into the following 2 groups (n=6):
(b) nerve crush/Met-SDF-1α variant at 100, 30, and 10 μg/kg s.c.

[2] = tested on: leukocytes recruited in the peritoneal cavity; experiment: In vivo model of peritoneal cell recruitment; parameters: species or system mouse; details: 4 μg i.p. in Balb/C mice, 4 hours post injection
Method: 8-12 week old, female Balb/C mice (Janvier, France) were injected intra peritoneally (i.p.) with 200 μl NaCl (0.9%, LPS free) or chemokine 4 μg (WT SDF-1α or SDF-1α variant according to SEQ ID NO:4 diluted in 200 μl NaCl (0.9%, LPS free). […] of WT or mutant SDF-1α, mice were sacrificed by CO2 asphyxiation, the peritoneal cavity was washed with 3×5 ml ice cold PBS and the total lavage was pooled for individual mice. Total cells collected were counted by haemocytometer (Neubauer, Germany).

[3] = tested on: primary mixed cortical cultures stimulated with LPS; experiment: Cytokine release (TNF-α, IL-6) from LPS stimulated primary mixed cortical cultures; assay type: cell-based, mouse; details: for levels of IL-6 secretion / levels of TNF-α secretion: pre-incubation 3 h (SDF proteins 0.001, 0.1, 10 ng/ml; IL-10 10 ng/ml; dexamethasone 25 pM), then LPS 5 ng/ml 48 h, ELISA, compared to untreated cells
Method: Culturing of primary cells was performed as described (Lubetzki et al., 1993) using brain tissue from embryos isolated from NMRI mice at 16 days post-coitum. Cerebral hemispheres were dissected from embryo brains, dissociated via trypsin digestion and the single cell suspension was seeded at 5×10^4 cells in 50 μl myelination medium per well onto BioCoat® poly-L-lysine coated 96-well plates (356516, Becton Dickinson). The myelination medium consisted of Bottenstein-Sato medium (Bottenstein and Sato, 1979; Sadir et al., 2001), supplemented with 1% FCS, 1% penicillin-streptomycin solution (Seromed) and recombinant platelet-derived growth factor AA (PDGF-AA, R&D Systems) at 10 ng/mL.
For testing the effects of SDF-1α and SDF-1α variant (as defined in SEQ ID NO: 4) on LPS stimulated cultures, cells were allowed to grow for two weeks. At day 14 cells were pre-incubated with increasing concentrations (0.001, 0.1 and 10 ng/ml) of the corresponding proteins into 25 μl of medium for three hours at 37° C. and 10% CO2. LPS was then supplemented to the cells at the concentration of 5 ng/ml into 25 μl of medium to obtain a final volume of 100 μl and incubated for 48 hours. Supernatants were collected at day 16 and the levels of TNF-α and IL-6 (the major cytokines released by activated microglia) were measured via specific ELISAs purchased from R&D systems (DuoSet mouse TNF-α ELISA DY410, mouse IL-6 ELISA DY406).
Global analysis of the data was performed using one-way ANOVA. Dunnett's test was used further, and data were compared to the “untreated cells”. The level of significance was set at a: p<0.001; b or **: p<0.01; c or *: p<0.05; d: p<0.1. The results were expressed as mean ±standard error of the mean (s.e.m.).

## Met-SDF-1α: Human mature isoform SDF-1α having an additional N-terminal Methionine, SEQ ID NO: 7
[1]; 100, 30, and 10 μg/kg s.c., day 7 and day 14 after crush
  CMAP latency vs vehicle treated mice: significantly reduced

B1: SDF-1α variant: Triple mutant of SDF-1α (Lys24Ala, His25Ala, Lys27Ala), SEQ ID NO: 4, reduced GAG binding activity (protein)
chain: KPVSLSYRCPCRFFESHVARANVAALAILNTPNCALQIVARLKNNNRQVCIDPKLKWIQEYLEKALNK
modifications: Human
[2]
  leukocyte recruitment in the peritoneal cavity: did not recruit leukocytes
[1]; 30 μg/kg s.c., 7 dpl and 22 dpl
  CMAP duration vs vehicle treated mice: reduced
[1]; 30 μg/kg s.c., 22 dpl
  CMAP amplitude: significant increase
  CMAP latency vs vehicle treated mice: positive effect
[1]; 30 μg/kg s.c., especially at 7 dpl
  CMAP latency vs vehicle treated mice: significantly reduced
[3]
  levels of IL-6 secretion: significantly decreased
  levels of TNF-α secretion: significantly decreased
[3]; tested 0.001, 0.1 and 10 ng/ml, LPS 5 ng/ml 48 h
  best concentration for decrease of TNF-α and IL-6 secretion: 10 ng/mL

B2: IL-10: control molecule shown to inhibit cytokine release from activated microglia (protein, UniProt P18893 19-178, looked up)
Interleukin-10: SRGQYSREDNNCTHFPVGQSHMLLELRTAFSQVKTFFQTKDQLDNILLTDSLMQDFKGYLGCQALSEMIQFYLVEVMPQAEKHGPEIKEHLNSLGEKLKTLRMRLRRCHRFLPCENKSKAVEQVKSDFNKLQDQGVYKAMNEFDIFINCIEAYMMIKMKS
[3]
  levels of IL-6 secretion: down regulated
  levels of TNF-α secretion: down regulated
